Measured values published in patent US20240376151A1, “STAPLED PEPTIDES AND METHODS THEREOF” (FOG PHARMACEUTICALS, INC., priority 2022, published 2024).

Molecular target: T1, beta-catenin (Homo sapiens, UniProt P35222)
T1 construct: made in house; host or cells: E. coli BL21 (DE3) pLysS
T1 sequence (P35222 134-665): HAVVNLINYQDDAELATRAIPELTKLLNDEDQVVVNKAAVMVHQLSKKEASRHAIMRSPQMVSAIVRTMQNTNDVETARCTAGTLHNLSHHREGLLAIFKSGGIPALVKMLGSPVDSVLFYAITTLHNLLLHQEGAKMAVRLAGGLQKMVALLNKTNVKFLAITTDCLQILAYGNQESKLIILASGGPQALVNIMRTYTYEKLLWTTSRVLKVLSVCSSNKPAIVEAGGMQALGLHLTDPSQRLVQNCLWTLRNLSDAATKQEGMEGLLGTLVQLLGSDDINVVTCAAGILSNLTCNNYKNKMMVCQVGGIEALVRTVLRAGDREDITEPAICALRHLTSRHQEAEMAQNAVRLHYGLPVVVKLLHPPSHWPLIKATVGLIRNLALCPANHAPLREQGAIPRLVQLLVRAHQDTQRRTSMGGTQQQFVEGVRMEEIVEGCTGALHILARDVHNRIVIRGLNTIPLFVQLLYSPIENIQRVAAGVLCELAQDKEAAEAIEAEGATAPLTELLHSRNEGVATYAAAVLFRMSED
Experiment: Phage Library Screening with NGS, beta-catenin
Assay type: binding
Details: for Target Concentration 10 (phage screen NGS readout): beta-catenin target concentration 10; for Target Concentration 10 (phage screen NGS readout) / Target Concentration 30 (phage screen NGS readout) / Target Concentration 100 (phage screen NGS readout) / Target Concentration 300 (phage screen NGS readout): no competitor; for Target Concentration 30 (phage screen NGS readout): beta-catenin target concentration 30; for Target Concentration 100 (phage screen NGS readout): beta-catenin target concentration 100; for Target Concentration 300 (phage screen NGS readout): beta-catenin target concentration 300; for Target Concentration 1000 (phage screen NGS readout): beta-catenin target concentration 1000

Row | Sequence | Target Concentration BLANK (phage screen NGS readout) (first column) | Target Concentration BLANK (phage screen NGS readout) (fourth column) | Target Concentration BLANK (phage screen NGS readout) (second column) | Target Concentration BLANK (phage screen NGS readout) (third column) | Target Concentration 10 (phage screen NGS readout) | Target Concentration 30 (phage screen NGS readout) | Target Concentration 100 (phage screen NGS readout) | Target Concentration 300 (phage screen NGS readout) | Target Concentration 1000 (phage screen NGS readout) (first 1000 column) | Target Concentration 1000 (phage screen NGS readout) (second 1000 column)
1 | DPAILDCQLAAMDCSTW | 0 | 0 | 0 | 0 | 0 | 6 | 22 | 21 | 25 | 55
2 | DPAILDCSIAAIDCAYS | 0 | 0 | 0 | 0 | 0 | 0 | 16 | 42 | 39 | 29
3 | DPAILECHMAAFECYIE | 0 | 0 | 0 | 0 | 8 | 2 | 20 | 59 | 86 | 41
4 | DPAILECHVAALDCQMW | 0 | 0 | 2 | 0 | 0 | 2 | 40 | 55 | 98 | 81
5 | DPAILECYEAAFECQYM | 0 | 0 | 0 | 0 | 7 | 8 | 20 | 49 | 41 | 39
6 | DPAILNCHMAAWDCNFY | 0 | 0 | 0 | 1 | 0 | 7 | 14 | 57 | 37 | 59
7 | DPAILNCHVAAWNCHSF | 0 | 0 | 0 | 0 | 0 | 0 | 1 | 8 | 4 | 23
8 | DPAILQCYEAAFSCHYQ | 0 | 0 | 0 | 0 | 0 | 9 | 40 | 54 | 39 | 42
9 | DPAILTCYEAAFTCQYQ | 0 | 0 | 1 | 0 | 0 | 7 | 18 | 71 | 69 | 105
10 | DPAIMACYEAAYLCDYI | 1 | 1 | 0 | 0 | 2 | 4 | 29 | 85 | 111 | 150
11 | DPAIMACYQAAFWCQYN | 1 | 0 | 0 | 1 | 0 | 0 | 4 | 27 | 29 | 18
12 | DPALWNCDHAALLCDHQ | 0 | 0 | 0 | 0 | 0 | 0 | 10 | 8 | 13 | 10
13 | DPAMIQCQWAAEHCELI | 0 | 0 | 1 | 0 | 0 | 0 | 4 | 33 | 19 | 42
14 | DPAMSQCNWAAVHCQLL | 0 | 0 | 0 | 0 | 6 | 6 | 6 | 13 | 15 | 23
15 | DPAMVTCYEAAYVCQYF | 0 | 0 | 0 | 0 | 0 | 0 | 0 | 0 | 7 | 0
16 | DPAMWICEHAALNCEIR | 0 | 0 | 0 | 0 | 2 | 6 | 46 | 158 | 145 | 152
17 | DPANVECEWAAIHCSLV | 0 | 0 | 0 | 0 | 13 | 2 | 19 | 158 | 164 | 187
18 | DPAQFYCEHAALLCRWE | 0 | 0 | 0 | 0 | 0 | 0 | 5 | 11 | 15 | 11
19 | DPAQNICEWAALHCDLI | 0 | 0 | 1 | 0 | 0 | 13 | 37 | 109 | 177 | 82
